Test results published in PMC10237034 (Molecular Cell, 2023).
Values belong to the binder of their own block, whether it stands above or below them.

What was measured:
Assay in all cases: cryo-EM structure
histone H2B = histone H2B (X. laevis, UniProt P02281)
histone H4 = histone H4 (X. laevis, UniProt P62799)
TFIIH subunit XPB = TFIIH subunit XPB (human, UniProt P19447 1-782)
Sequence of TFIIH subunit XPB (P19447 whole entry): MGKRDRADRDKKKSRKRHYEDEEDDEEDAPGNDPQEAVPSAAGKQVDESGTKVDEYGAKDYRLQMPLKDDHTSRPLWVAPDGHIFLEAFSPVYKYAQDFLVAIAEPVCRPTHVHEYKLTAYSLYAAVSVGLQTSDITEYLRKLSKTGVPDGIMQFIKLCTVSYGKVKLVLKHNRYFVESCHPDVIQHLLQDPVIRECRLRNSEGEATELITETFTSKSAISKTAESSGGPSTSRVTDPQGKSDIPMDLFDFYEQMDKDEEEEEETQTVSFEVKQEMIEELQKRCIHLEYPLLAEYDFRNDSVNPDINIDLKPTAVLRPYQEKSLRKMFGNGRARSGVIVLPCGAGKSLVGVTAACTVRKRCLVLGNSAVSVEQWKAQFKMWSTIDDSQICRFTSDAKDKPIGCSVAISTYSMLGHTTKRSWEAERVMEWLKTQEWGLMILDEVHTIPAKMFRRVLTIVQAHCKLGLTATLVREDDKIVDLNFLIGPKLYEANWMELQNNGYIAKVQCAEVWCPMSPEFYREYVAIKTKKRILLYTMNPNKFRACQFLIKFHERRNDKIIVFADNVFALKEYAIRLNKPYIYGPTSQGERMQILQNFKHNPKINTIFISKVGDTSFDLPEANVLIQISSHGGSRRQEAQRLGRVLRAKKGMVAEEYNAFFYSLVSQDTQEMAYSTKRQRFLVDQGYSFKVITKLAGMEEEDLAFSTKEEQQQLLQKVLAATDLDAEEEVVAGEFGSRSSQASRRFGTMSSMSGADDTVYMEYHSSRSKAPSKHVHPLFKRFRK

- binding result (histone H2B): binds
- binding result (histone H4): binds
B1: TFIIH subunit p8 (natural protein)
chain: MVNVLKGVLIECDPAMKQFLLYLDESNALGKKFIIQDIDDTHVFVIAELVNVLQERVGELMDQNAFSLTQK

- binding result (TFIIH subunit XPB): binds
B2: TFIIH subunit MAT1 (natural protein)
chain: MDDQGCPRCKTTKYRNPSLKLMVNVCGHTLCESCVDLLFVRGAGNCPECGTPLRKSNFRVQLFEDPTVDKEVEIRKKVLKIYNKREEDFPSLREYNDFLEEVEEIVFNLTNNVDLDNTKKKMEIYQKENKDVIQKNKLKLTREQEELEEALEVERQENEQRRLFIQKEEQLQQILKRKNKQAFLDELESSDLPVALLLAQHKDRSTQLEMQLEKPKPVKPVTFSTGIKMGQHISLAPIHKLEEALYEYQPLQIETYGPHVPELEMLGRLGYLNHVRAASPQDLAGGYTSSLACHRALQDAFSGLFWQPS
